Results: paper PMC4250405

Molecular target: taxol-stabilized microtubules (UniProt Q6B856)
Assay: optical trap bead assay

p150^Glued fragment p150 1-555 (from UniProt P28023 1-555) (domain or fragment)
MT binding time of diffusive beads: 54.3 s
